Test results: the supplement of paper PMC9876800

Tested on: peptide library, one residue held at a place counted from the S/T acceptor
Assay: relative phosphorylation of the sub-library (ratio to the mean residue at this position); higher = residue favoured
Details: human
Procedure, shortened: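 In 384-well plates, purified recombinant kinases (human or orthologue constructs) were incubated for 90 min under kinase-specific conditions with 50 μM biotinylated degenerate peptide sub-libraries and 50 μM ATP spiked with γ-32P-ATP. Each sub-library fixed a single residue at one position around a central Ser/Thr. Relative sub-library phosphorylation, measured by phosphorimaging and densitometry of streptavidin membrane spots, is given as a ratio to the mean residue at that position.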

Sequence of MAPK3, construct: Full length (P27361 whole entry, looked up): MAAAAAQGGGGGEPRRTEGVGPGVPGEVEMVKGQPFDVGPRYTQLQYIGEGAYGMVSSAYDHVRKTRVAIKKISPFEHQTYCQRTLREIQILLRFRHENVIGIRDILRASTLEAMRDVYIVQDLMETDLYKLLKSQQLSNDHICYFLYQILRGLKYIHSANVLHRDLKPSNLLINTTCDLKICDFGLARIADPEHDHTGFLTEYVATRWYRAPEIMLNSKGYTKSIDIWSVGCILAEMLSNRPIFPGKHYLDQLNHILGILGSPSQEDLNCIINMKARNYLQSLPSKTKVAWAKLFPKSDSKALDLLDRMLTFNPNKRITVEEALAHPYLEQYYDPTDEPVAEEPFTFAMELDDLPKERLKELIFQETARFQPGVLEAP
Sequence of MAPK15, construct: Full length (Q8TD08 whole entry, looked up): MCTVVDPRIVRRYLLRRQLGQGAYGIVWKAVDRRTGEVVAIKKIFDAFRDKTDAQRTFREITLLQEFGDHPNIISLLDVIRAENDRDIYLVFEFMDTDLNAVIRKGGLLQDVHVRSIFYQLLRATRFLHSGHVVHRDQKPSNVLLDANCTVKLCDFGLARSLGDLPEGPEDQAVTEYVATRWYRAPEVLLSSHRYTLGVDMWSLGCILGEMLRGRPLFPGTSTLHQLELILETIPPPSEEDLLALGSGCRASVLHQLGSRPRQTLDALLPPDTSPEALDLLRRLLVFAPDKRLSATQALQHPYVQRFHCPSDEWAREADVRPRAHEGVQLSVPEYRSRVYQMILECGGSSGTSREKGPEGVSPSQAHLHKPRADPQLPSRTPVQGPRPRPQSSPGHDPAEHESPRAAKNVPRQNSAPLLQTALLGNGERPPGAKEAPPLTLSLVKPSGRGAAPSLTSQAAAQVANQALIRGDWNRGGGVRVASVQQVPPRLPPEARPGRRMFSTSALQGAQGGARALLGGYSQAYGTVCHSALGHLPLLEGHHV
Sequence of MAPK10, construct: aa1-426 (P53779 1-426, looked up): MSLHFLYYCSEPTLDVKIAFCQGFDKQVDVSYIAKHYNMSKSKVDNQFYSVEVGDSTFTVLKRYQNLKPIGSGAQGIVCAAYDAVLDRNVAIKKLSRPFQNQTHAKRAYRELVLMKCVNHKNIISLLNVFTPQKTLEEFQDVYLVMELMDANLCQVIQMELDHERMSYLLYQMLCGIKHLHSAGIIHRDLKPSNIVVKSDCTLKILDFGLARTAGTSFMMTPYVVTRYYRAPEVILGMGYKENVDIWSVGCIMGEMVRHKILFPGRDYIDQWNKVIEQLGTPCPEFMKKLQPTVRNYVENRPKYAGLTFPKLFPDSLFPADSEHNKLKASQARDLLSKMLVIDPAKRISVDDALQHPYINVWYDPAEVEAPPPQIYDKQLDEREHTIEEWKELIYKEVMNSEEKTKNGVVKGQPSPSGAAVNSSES
Sequence of CSNK1G1, construct: aa21-end (Q9HCP0 21-422, looked up): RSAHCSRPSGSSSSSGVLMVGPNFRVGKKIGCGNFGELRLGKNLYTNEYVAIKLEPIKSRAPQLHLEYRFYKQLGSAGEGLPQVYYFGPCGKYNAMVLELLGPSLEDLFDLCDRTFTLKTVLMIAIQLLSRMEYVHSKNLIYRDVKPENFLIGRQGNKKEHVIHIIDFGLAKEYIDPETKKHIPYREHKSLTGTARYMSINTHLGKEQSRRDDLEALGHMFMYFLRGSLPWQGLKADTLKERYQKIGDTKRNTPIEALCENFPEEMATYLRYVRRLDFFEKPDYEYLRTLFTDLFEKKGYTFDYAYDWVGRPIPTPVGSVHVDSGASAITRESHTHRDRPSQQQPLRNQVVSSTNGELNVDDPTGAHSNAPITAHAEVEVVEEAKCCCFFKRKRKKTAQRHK

MAPK10, construct: aa1-426 (from UniProt P53779)
relative phosphorylation
Details | at +1 | at +2 | at +3 | at +4 | at -1 | at -2 | at -3 | at -4 | at -5
A fixed | 0.471 | 0.918 | 1.3 | 1.17 | 1.08 | 2.16 | 1.22 | 1.22 | 1.17
D fixed | 0.256 | 1 | 1.44 | 1.34 | 0.89 | 0.958 | 1.36 | 1.39 | 1.42
E fixed | 0.234 | 0.725 | 1.52 | 1.25 | 0.855 | 0.548 | 1.15 | 1.28 | 1.18
F fixed | 0.456 | 0.765 | 0.929 | 0.851 | 0.752 | 0.582 | 1 | 0.854 | 0.875
G fixed | 0.671 | 1.12 | 1.38 | 1.1 | 1.16 | 0.785 | 1.13 | 1.06 | 1.15
H fixed | 0.281 | 1.05 | 1.19 | 1.12 | 1.13 | 0.552 | 1.08 | 1.03 | 0.964
I fixed | 0.351 | 1.26 | 0.596 | 0.783 | 0.662 | 1.25 | 0.735 | 0.705 | 0.738
K fixed | 0.268 | 0.779 | 0.611 | 0.82 | 0.982 | 0.548 | 0.653 | 0.783 | 0.754
L fixed | 0.366 | 1.27 | 0.77 | 0.913 | 1.2 | 1.96 | 0.853 | 0.753 | 0.644
M fixed | 0.369 | 1.76 | 0.922 | 0.888 | 1.27 | 1.07 | 1.06 | 1.01 | 0.722
N fixed | 0.269 | 1.03 | 1.07 | 1.07 | 0.849 | 0.554 | 1.03 | 0.84 | 0.928
P fixed | 11.5 | 0.517 | 0.564 | 1.5 | 1.47 | 2.13 | 1.2 | 1.23 | 1.33
Q fixed | 0.259 | 1.03 | 1 | 1.05 | 1.37 | 0.747 | 0.964 | 1.01 | 1.07
R fixed | 0.269 | 0.848 | 0.945 | 0.893 | 1.01 | 0.612 | 0.883 | 0.923 | 1.07
V fixed | 0.367 | 1.48 | 0.723 | 0.82 | 0.781 | 1.43 | 0.717 | 0.843 | 0.913
W fixed | 0.29 | 0.723 | 1.03 | 0.701 | 0.722 | 0.587 | 1.03 | 1.1 | 0.967
Y fixed | 0.292 | 0.734 | 0.999 | 0.732 | 0.815 | 0.518 | 0.929 | 0.962 | 1.1
pThr fixed | 0.434 | 1.94 | 1.02 | 1.4 | 0.52 | 1.08 | 1.06 | 1.17 | 1.29
pTyr fixed | 0.569 | 1.23 | 1.59 | 1.02 | 0.893 | 0.598 | 1.03 | 1.64 | 1.41

CSNK1G1, construct: aa21-end (from UniProt Q9HCP0)
relative phosphorylation
Details | at +1 | at +2 | at +3 | at +4 | at -1 | at -2 | at -3 | at -4 | at -5
A fixed | 0.872 | 1.05 | 1.29 | 1.13 | 1.38 | 2.1 | 0.918 | 1.23 | 1.22
D fixed | 0.317 | 0.551 | 0.757 | 0.828 | 0.406 | 1 | 5.14 | 1.25 | 1.11
E fixed | 0.4 | 0.293 | 0.823 | 0.662 | 0.47 | 1.13 | 2.32 | 1.12 | 0.901
F fixed | 0.853 | 1.21 | 1.31 | 1.45 | 0.713 | 0.511 | 0.471 | 0.984 | 0.913
G fixed | 0.611 | 1.02 | 1.62 | 1.19 | 1.53 | 1.19 | 0.734 | 1.07 | 1.04
H fixed | 0.731 | 1.71 | 1.03 | 0.976 | 0.983 | 0.714 | 0.633 | 0.918 | 1.1
I fixed | 2.43 | 1.06 | 0.755 | 0.921 | 0.927 | 1.11 | 0.42 | 0.799 | 0.734
K fixed | 0.461 | 1.03 | 0.731 | 0.812 | 1.27 | 0.674 | 0.644 | 0.981 | 1.44
L fixed | 2.32 | 0.922 | 0.962 | 0.894 | 1.06 | 0.949 | 0.482 | 0.81 | 0.892
M fixed | 1.77 | 0.951 | 0.957 | 0.943 | 1.01 | 0.63 | 0.389 | 0.796 | 0.801
N fixed | 0.619 | 0.976 | 0.842 | 0.786 | 0.597 | 1.53 | 0.758 | 0.877 | 1.02
P fixed | 0.326 | 0.369 | 0.774 | 1.15 | 1.36 | 1.08 | 0.646 | 1 | 0.87
Q fixed | 0.685 | 0.798 | 0.732 | 0.839 | 0.886 | 1.08 | 0.546 | 0.76 | 0.798
R fixed | 0.771 | 1.01 | 0.884 | 0.713 | 1.28 | 0.919 | 1.07 | 0.814 | 1.05
V fixed | 2.03 | 1.01 | 0.76 | 0.947 | 0.978 | 1.26 | 0.582 | 0.763 | 0.875
W fixed | 0.861 | 1.25 | 1.4 | 1.35 | 1.25 | 0.608 | 0.636 | 1.72 | 1.24
Y fixed | 0.935 | 1.79 | 1.37 | 1.41 | 0.898 | 0.511 | 0.604 | 1.11 | 1
pThr fixed | 0.575 | 0.524 | 0.83 | 1.73 | 0.534 | 3.07 | 34 | 4.36 | 1.61
pTyr fixed | 0.734 | 3.17 | 4.7 | 1.83 | 0.64 | 2.15 | 5.42 | 3.67 | 2.21

MAPK15, construct: Full length (from UniProt Q8TD08)
relative phosphorylation
Details | at +1 | at +2 | at +3 | at +4 | at -1 | at -2 | at -3 | at -4 | at -5
A fixed | 1.98 | 0.19 | 1.12 | 1.12 | 0.933 | 1.36 | 1.3 | 1.04 | 1.08
D fixed | 0.214 | 0.135 | 0.665 | 0.726 | 0.643 | 0.632 | 0.992 | 0.893 | 0.987
E fixed | 0.31 | 0.115 | 0.655 | 0.643 | 0.517 | 0.59 | 0.941 | 1.01 | 0.859
F fixed | 1.22 | 0.19 | 0.874 | 0.928 | 1.08 | 0.688 | 0.88 | 0.875 | 1.06
G fixed | 1.05 | 0.226 | 1.2 | 1.11 | 0.767 | 0.947 | 1.5 | 1.18 | 1.09
H fixed | 1.41 | 0.573 | 0.984 | 0.976 | 1.06 | 0.738 | 1.04 | 1.09 | 1.07
I fixed | 0.221 | 0.173 | 0.598 | 0.864 | 0.897 | 1.17 | 0.869 | 0.869 | 0.831
K fixed | 0.432 | 0.992 | 1.61 | 1.41 | 1.11 | 0.651 | 0.9 | 0.997 | 1.26
L fixed | 0.27 | 0.189 | 0.85 | 0.95 | 1.55 | 1.53 | 0.985 | 0.959 | 0.754
M fixed | 0.369 | 0.17 | 0.799 | 0.964 | 1.28 | 1.31 | 0.972 | 0.951 | 0.815
N fixed | 0.436 | 0.247 | 0.863 | 0.853 | 0.789 | 0.944 | 0.965 | 1.04 | 0.89
P fixed | 4.86 | 0.192 | 1.05 | 1.11 | 0.93 | 2.07 | 1.1 | 1.06 | 1.19
Q fixed | 0.578 | 0.498 | 0.897 | 1.02 | 0.888 | 1.01 | 1.02 | 1.03 | 1.04
R fixed | 1.04 | 12.5 | 2.31 | 1.46 | 1.23 | 0.817 | 0.928 | 1.1 | 1.24
V fixed | 0.421 | 0.184 | 0.792 | 0.841 | 0.933 | 1.13 | 0.864 | 0.941 | 0.914
W fixed | 0.758 | 0.232 | 0.825 | 1.17 | 1.06 | 0.719 | 0.88 | 1.02 | 0.864
Y fixed | 1.44 | 0.225 | 0.903 | 0.866 | 1.34 | 0.69 | 0.872 | 0.956 | 1.07
pThr fixed | 0.325 | 0.205 | 0.653 | 0.578 | 0.415 | 0.772 | 0.936 | 0.887 | 0.904
pTyr fixed | 0.601 | 0.177 | 0.592 | 0.512 | 0.486 | 0.681 | 0.862 | 0.905 | 1.01

MAPK3, construct: Full length (from UniProt P27361)
relative phosphorylation
Details | at +1 | at +2 | at +3 | at +4 | at -1 | at -2 | at -3 | at -4 | at -5
A fixed | 1.21 | 1.07 | 1.04 | 0.886 | 0.999 | 1.2 | 1.23 | 1.09 | 1.06
D fixed | 0.0833 | 0.582 | 0.614 | 0.81 | 0.5 | 0.407 | 0.989 | 1.19 | 1.31
E fixed | 0.0773 | 0.244 | 0.706 | 0.732 | 0.509 | 0.454 | 1.27 | 1.35 | 1.2
F fixed | 0.372 | 1.1 | 1.15 | 1.22 | 0.802 | 0.577 | 0.808 | 0.946 | 1.09
G fixed | 0.947 | 1.34 | 1.13 | 1.02 | 1 | 0.724 | 1.32 | 1.25 | 1.25
H fixed | 0.217 | 1.26 | 1.11 | 1.07 | 0.975 | 0.461 | 0.949 | 0.914 | 1.11
I fixed | 0.292 | 0.775 | 0.878 | 0.943 | 0.67 | 1.18 | 0.792 | 0.82 | 0.724
K fixed | 0.179 | 1.58 | 0.699 | 1.31 | 1.35 | 0.345 | 0.663 | 0.874 | 0.904
L fixed | 0.398 | 1.11 | 1.08 | 1.02 | 1.31 | 1.42 | 0.917 | 0.958 | 0.903
M fixed | 0.276 | 0.987 | 0.971 | 1.09 | 1.39 | 1.29 | 1.08 | 1.09 | 0.907
N fixed | 0.155 | 1.26 | 0.786 | 0.931 | 0.785 | 0.613 | 0.989 | 0.855 | 0.93
P fixed | 11.6 | 0.628 | 1.56 | 0.896 | 1.26 | 4.97 | 1.74 | 1.18 | 1.11
Q fixed | 0.159 | 0.788 | 0.736 | 1.01 | 1.1 | 0.82 | 1.05 | 0.942 | 0.975
R fixed | 0.223 | 2.13 | 0.979 | 1.1 | 1.85 | 0.566 | 0.907 | 0.905 | 0.841
V fixed | 0.291 | 0.711 | 0.879 | 0.903 | 0.746 | 1.22 | 0.837 | 0.777 | 0.783
W fixed | 0.261 | 0.681 | 1.55 | 1.12 | 0.654 | 0.386 | 0.659 | 0.913 | 0.781
Y fixed | 0.211 | 0.744 | 1.13 | 0.931 | 1.08 | 0.373 | 0.798 | 0.948 | 1.13
pThr fixed | 0.338 | 0.662 | 0.663 | 0.75 | 0.373 | 0.941 | 1.23 | 1.23 | 1.41
pTyr fixed | 0.323 | 0.38 | 1.01 | 1.08 | 0.444 | 0.686 | 1.29 | 1.37 | 1.25
